EC50 data for two substances are collected here from patent US20020052481A1.

Where two headings read alike, the source gives them in different places.

For test [1], the target named is HIV-1JR-FL envelope glycoprotein gp120/gp41 on cells (HIV-1JR-FL).
In test [2] the target is HIV-1LAI envelope glycoprotein gp120/gp41 on cells (HIV-1LAI) (UniProt P03377).
Test [3] concerns the target HIV-1JR-FL envelope glycoprotein gp120/gp41 on cells (HIV-1JR-FL). This is another data set of the same source.
For test [4], the target named is recombinant gp120 from the laboratory-adapted strain HIV-1LAI (HIV-1LAI) (UniProt P03377). Description: modified ELISA, gp120 captured on plate. (In general: In an ELISA, binding on a coated surface is turned into a signal by an enzyme label.)
Test [5] addresses recombinant gp120 from the primary isolate HIV-1JR-FL (HIV-1JR-FL). Description: modified ELISA, gp120 captured on plate.

A word on the EC50: it is the concentration needed to bring the measured effect to its halfway point.

^125I-CD4-IgG2 (Fc fusion): the concentration giving a half-maximal response (EC50) was 12.8 nM in test [1]; 19 nM in test [2]; 10 to 40 nM in test [3]; 1.05 nM in test [4]; 2.36 nM in test [5].

For the substance “CD4-IgG2 chimeric heterotetramer (Fc fusion)”, the results for the half-maximal effective concentration (EC50) in test [4] and in test [5] were 1.47 nM and 1.27 nM, respectively.
